This experiment has as its target LRP6mcherry2 (UniProt O75581). The experiment can be described thus: FRET or BRET; FRET-based FLIM (EGFP donor lifetime) on live HEK293T cells stably expressing CD44EGFP and LRP6mcherry2, induced with Wnt3a CM 1 h before analysis. In general terms: BRET reads energy transfer from a luciferase to a nearby fluorophore.
Sequence of UniProt O75581 (O75581 20-1613): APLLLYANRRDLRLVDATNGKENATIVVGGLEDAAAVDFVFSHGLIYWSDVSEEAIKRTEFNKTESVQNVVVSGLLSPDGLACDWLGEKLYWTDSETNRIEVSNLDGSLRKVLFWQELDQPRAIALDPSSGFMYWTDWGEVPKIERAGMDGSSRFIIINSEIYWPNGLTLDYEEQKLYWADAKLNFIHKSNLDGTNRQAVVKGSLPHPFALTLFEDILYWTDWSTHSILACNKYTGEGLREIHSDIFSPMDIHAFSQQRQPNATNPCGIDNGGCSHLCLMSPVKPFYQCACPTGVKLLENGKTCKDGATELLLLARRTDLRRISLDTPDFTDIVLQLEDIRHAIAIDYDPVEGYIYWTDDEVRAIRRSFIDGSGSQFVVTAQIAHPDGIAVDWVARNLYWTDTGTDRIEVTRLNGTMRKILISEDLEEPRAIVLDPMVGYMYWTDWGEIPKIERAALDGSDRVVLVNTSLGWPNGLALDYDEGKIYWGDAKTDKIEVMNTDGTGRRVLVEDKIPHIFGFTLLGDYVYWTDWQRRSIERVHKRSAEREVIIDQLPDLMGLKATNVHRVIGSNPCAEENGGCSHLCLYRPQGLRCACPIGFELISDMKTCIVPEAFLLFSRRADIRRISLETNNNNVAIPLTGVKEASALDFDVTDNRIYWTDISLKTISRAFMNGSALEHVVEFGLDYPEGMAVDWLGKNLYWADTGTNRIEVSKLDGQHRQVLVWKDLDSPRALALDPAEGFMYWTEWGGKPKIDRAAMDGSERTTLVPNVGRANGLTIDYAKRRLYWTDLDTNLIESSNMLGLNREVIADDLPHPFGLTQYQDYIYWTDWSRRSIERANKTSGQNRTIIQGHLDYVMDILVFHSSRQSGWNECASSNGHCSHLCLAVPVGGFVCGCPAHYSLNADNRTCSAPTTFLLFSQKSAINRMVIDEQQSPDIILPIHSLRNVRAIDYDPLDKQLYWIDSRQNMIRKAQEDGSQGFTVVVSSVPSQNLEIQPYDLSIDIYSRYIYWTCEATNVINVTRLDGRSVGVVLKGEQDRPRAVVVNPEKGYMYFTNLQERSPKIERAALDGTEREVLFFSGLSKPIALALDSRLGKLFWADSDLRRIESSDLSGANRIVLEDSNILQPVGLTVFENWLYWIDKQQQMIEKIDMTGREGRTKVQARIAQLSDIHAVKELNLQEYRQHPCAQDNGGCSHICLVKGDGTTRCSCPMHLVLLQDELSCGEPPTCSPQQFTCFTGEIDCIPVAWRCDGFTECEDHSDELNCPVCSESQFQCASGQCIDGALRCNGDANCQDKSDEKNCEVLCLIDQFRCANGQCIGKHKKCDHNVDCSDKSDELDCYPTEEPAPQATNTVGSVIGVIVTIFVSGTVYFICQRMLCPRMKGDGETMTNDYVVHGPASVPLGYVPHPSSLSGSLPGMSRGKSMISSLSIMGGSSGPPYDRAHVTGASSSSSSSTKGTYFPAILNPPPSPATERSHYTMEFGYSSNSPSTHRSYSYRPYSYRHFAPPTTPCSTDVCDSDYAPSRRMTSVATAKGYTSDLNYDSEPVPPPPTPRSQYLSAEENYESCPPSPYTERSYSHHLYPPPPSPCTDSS

“CD44EGFP (from UniProt P16070 21-742) (receptor)” registered an EGFP donor fluorescence lifetime of 2450 ps and an FRET efficiency of 7.5%.

(Values after paper PMC8861016.)
